Measured values from patent publication US20220125891.

T1: human Regnase-1 of Example 15 (full length, GST tag cleaved off, BirA recognition sequence on the C-terminal side, biotinylated)
T1 sequence (Q5D1E8 1-599, looked up): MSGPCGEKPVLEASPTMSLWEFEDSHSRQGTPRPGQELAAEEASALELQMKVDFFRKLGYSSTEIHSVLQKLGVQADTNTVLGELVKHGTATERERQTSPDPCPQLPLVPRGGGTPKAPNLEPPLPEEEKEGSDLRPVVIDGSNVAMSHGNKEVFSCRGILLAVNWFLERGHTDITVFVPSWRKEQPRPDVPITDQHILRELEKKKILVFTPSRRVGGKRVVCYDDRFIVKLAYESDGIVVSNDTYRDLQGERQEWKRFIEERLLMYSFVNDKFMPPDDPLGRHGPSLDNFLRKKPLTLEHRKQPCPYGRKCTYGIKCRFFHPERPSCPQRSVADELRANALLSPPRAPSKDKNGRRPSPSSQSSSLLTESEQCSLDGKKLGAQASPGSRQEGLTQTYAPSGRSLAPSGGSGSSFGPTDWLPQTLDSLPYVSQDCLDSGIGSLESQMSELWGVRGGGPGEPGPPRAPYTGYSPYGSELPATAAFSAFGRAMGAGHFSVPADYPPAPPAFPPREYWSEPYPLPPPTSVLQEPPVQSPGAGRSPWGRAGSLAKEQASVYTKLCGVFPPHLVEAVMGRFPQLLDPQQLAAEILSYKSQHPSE

B1: TBK1 (manufactured by SignalChem) (protein)
chain: MQSTSNHLWLLSDILGQGATANVFRGRHKKTGDLFAIKVFNNISFLRPVDVQMREFEVLKKLNHKNIVKLFAIEEETTTRHKVLIMEFCPCGSLYTVLEEPSNAYGLPESEFLIVLRDVVGGMNHLRENGIVHRDIKPGNIMRVIGEDGQSVYKLTDFGAARELEDDEQFVSLYGTEEYLHPDMYERAVLRKDHQKKYGATVDLWSIGVTFYHAATGSLPFRPFEGPRRNKEVMYKIITGKPSGAISGVQKAENGPIDWSGDMPVSCSLSRGLQVLLTPVLANILEADQEKCWGFDQFFAETSDILHRMVIHVFSLQQMTAHKIYIHSYNTATIFHELVYKQTKIISSNQELIYEGRRLVLEPGRLAQHFPKTTEENPIFVVSREPLNTIGLIYEKISLPKVHPRYDLDGDASMAKAITGVVCYACRIASTLLLYQELMRKGIRWLIELIKDDYNETVHKKTEVVITLDFCIRNIEKTVKVYEKLMKINLEAAELGEISDIHTKLLRLSSSQGTIETSLQDIDSRLSPGGSLADAWAHQEGTHPKDRNVEKLQVLLNCMTEIYYQFKKDKAERRLAYNEEQIHKFDKQKLYYHATKAMTHFTDECVKKYEAFLNKSEEWIRKMLHLRKQLLSLTNQCFDIEEEVSKYQEYTNELQETLPQKMFTASSGIKHTMTPIYPSSNTLVEMTLGMKKLKEEMEGVVKELAENNHILERFGSLTMDGGLRNVDCL
B2: IKKβ (manufactured by SignalChem) (protein)
chain: MSWSPSLTTQTCGAWEMKERLGTGGFGNVIRWHNQETGEQIAIKQCRQELSPRNRERWCLEIQIMRRLTHPNVVAARDVPEGMQNLAPNDLPLLAMEYCQGGDLRKYLNQFENCCGLREGAILTLLSDIASALRYLHENRIIHRDLKPENIVLQQGEQRLIHKIIDLGYAKELDQGSLCTSFVGTLQYLAPELLEQQKYTVTVDYWSFGTLAFECITGFRPFLPNWQPVQWHSKVRQKSEVDIVVSEDLNGTVKFSSSLPYPNNLNSVLAERLEKWLQLMLMWHPRQRGTDPTYGPNGCFKALDDILNLKLVHILNMVTGTIHTYPVTEDESLQSLKARIQQDTGIPEEDQELLQEAGLALIPDKPATQCISDGKLNEGHTLDMDLVFLFDNSKITYETQISPRPQPESVSCILQEPKRNLAFFQLRKVWGQVWHSIQTLKEDCNRLQQGQRAAMMNLLRNNSCLSKMKNSMASMSQQLKAKLDFFKTSIQIDLEKYSEQTEFGITSDKLLLAWREMEQAVELCGRENEVKLLVERMMALQTDIVDLQRSPMGRKQGGTLDDLEEQARELYRRLREKPRDQRTEGDSQEMVRLLLQAIQSFEKKVRVIYTQLSKTVVCKQKALELLPKVEEVVSLMNEDEKTVVRLQEKRQKELWNLLKIACSKVRGPVSGSPDSMNASRLSQPGQLMSQPSTASNSLPEPAKKSEELVAEAHNLCTLLENAIQDTVREQDQSFTALDWSWLQTEEEEHSCLEQAS

Target: T1, human Regnase-1 of Example 15 (full …)

| Protein | phosphorylation detected by Western blotting |
| --- | --- |
| B1 | it was confirmed that human Regnase-1 is phosphorylated by IKKβ and TBK1 |
| B2 | it was confirmed that human Regnase-1 is phosphorylated by IKKβ and TBK1 |
